Experimental data reported in patent US20260000780A1, “B-LYMPHOCYTE SPECIFIC AMATOXIN ANTIBODY CONJUGATES” (priority 2021, published 2026).

B1: conjugate XXVI (conjugate)
heavy: EIQLQQSGPELVKPGASVKVSCKASGYSFTDYNMYWVKQSHGKSLEWIGYIDPYNGDTTYNQKFKGKATLTVDKSSSTAFIHLNSLTSEDSAVYYCARSPYGHYAMDYWGQGTSVTVSSASTKGPSVFPLAPSSKSTSGGTAALGCLVKDYFPEPVTVSWNSGALTSGVHTFPAVLQSSGLYSLSSVVTVPSSSLGTQTYICNVNHKPSNTKVDKKVEPKSCDKTHTCPPCPAPEAAGGPSVFLFPPKPKDTLMISRTPEVTCVVVCVSHEDPEVKFNWYVDGVEVHNAKTKPREEQYNSTYRVVSVLTVLHQDWLNGKEYKCKVSNKALPAPIEKTISKAKGQPREPQVYTLPPSREEMTKNQVSLTCLVKGFYPSDIAVEWESNGQPENNYKTTPPVLDSDGSFFLYSKLTVDKSRWQQGNVFSCSVMHEALHNHYTQKSLSLSPGK
light: DIVMTQSHKLLSTSVGDRVSITCKASQDVSTAVDWYQQKPGQSPKLLINWASTRHTGVPDRFTGSGSGTDYTLTISSMQAEDLALYYCRQHYSTPFTFGSGTKLEIKRTVAAPSVFIFPPSDEQLKSGTASVVCLLNNFYPREAKVQWKVDNALQSGNSQESVTEQDSKDSTYSLSSTLTLSKADYEKHKVYACEVTHQGLSSPVTKSFNRGEC
B2: Conjugate XXV (conjugate)
heavy chain: B1 heavy
light chain: B1 light
B3: Conjugate XXIV (conjugate)
heavy: B1 heavy
light: B1 light

What was measured:
[1] = target: RNA-polymerase II (Homo sapiens, UniProt P24928+P30876); details: read-out: KD of the complex between amanitin and RNA-polymerase II; cited from earlier work
[2] = test system: MEC-2 tumor xenograft; test: Disseminated MEC-2 tumor xenograft model; format: in vivo, CB17 Scid mice; details: day 138 after treatment
Procedure: Cytotoxic efficacy studies in vivo were performed using various anti-CD37 antibody amatoxin conjugates in a disseminated MEC-2 tumor xenograft model over 140 days of treatment.
Tumor cell inoculation was done on day −3 by i.v. injection of 2.5×10^6 MEC-2 cells in CB17 Scid mice. Treatment was performed on day 0 by single dose i.v. injection at maximum tolerable dose (MTD) of ⅛ and MTD of 1/16 doses, respectively. Readout of the study was body weight and survival. Results are shown in FIG. 10 (body weight) and FIG. 11 (survival) at day 138 after treatment. All groups treated with conjugate gained body weight as normal, in contrast to the control group.
Treatment groups are defined in Table 4. Group 10 (chHH1-HDP-LALA-D265C, p.o., single dose; 10 mg/kg) was excluded from analysis. Group 11 (Ibrutinib) was treated with Ibrutinib p.o. 5x/w for 3 weeks at a dose 25 mg/kg.

[3] = test system: Richter syndrome cells (PDX RS1316); test: Richter's syndrome patient-derived xenograft (PDX) model, intravenous; format: in vivo, CB17 Scid mice; details: for efficacy in treating RS / tolerability of a single dose: single dose at different doses, 15 days post engraftment
Description: The patient-derived xenograft (PDX) model for Richter's syndrome were adapted from Cancer Res (2018); 78 (13); 3413-20 with modifications.
Briefly, a total of 2×10^7 primary Richter syndrome cells from peripheral blood or lymph nodes were resuspended in Matrigel (BD Biosciences) and subcutaneously injected (double flank) in 8-week old CB17 Scid mice immunocompromised mice and left to engraft. Tumor masses were then collected, partially disrupted, and tumor cells reinjected as a single-cell suspension in Matrigel. These steps were repeated several times to obtain stable models of Richter syndrome.
For the intravenous model, 10^7 Richter syndrome cells purified from tumor masses were resuspended in PBS and injected in the tail vein of the mice. Mice were injected with a single dose of the conjugates XXIII, XXIV, or XXVI as indicated. All mice within the PBS control group died within 68 days post engraftment. One animal in the group receiving conjugate XXVI at a dose of 5 mg/kg i.v. died at day 90 post engraftment.
To assess residual RS disease activity in the organs of engrafted animals mice were euthanized and peripheral blood and organs (kidneys, spleen, bone marrow, lung, liver, and brain) collected and disease spread evaluated by flow cytometry, using anti-human antibodies (CD45PerCPCy5.5/CD19APC/CD20FITC).

[4] = test system: Raji-Luc tumor xenograft; test: Disseminated Raji-Luc tumor xenograft model; format: in vivo, CB17 Scid mice; details: single dose i.v., day 89 after treatment
Procedure: Cytotoxic efficacy studies in vivo were performed using various anti-CD37 antibody amatoxin conjugates in a disseminated Raji-Luc tumor xenograft model over 89 days of treatment.
Tumor cell inoculation was done on day-3 by i.v. injection of 2.5×10^6 Raji-Luc cells in CB17 Scid mice. Treatment was performed on day 0 by single dose i.v. injection at maximum tolerable dose (MTD) of 1/16 and MTD of 1/64 doses of cynomolgus MTD, respectively. Readout of the study was body weight, bioluminescence and survival. Results are shown in FIG. 10 (body weight), FIG. 11 (bioluminescence) and FIG. 12 (survival) at day 89 after treatment. All groups treated with conjugate gained body weight as normal, in contrast to the control group.

| Molecule | efficacy in treating RS [3] | tolerability of a single dose [3] | Alive animals ([4]; 0.188 mg/kg (MTD 1/64)) | Alive animals ([4]; 0.75 mg/kg (MTD 1/16)) | other results |
| --- | --- | --- | --- | --- | --- |
| amanitin | – | – | – | – | Kd [1]: 3 nM |
| C=CC(=O)N1CCC[C@@H](n2nc(-c3ccc(Oc4ccccc4)cc3)c3c(N)ncnc32)C1 [Ibrutinib, reference compound] | – | – | – | – | Alive animals ([2]; 25 mg/kg p.o. 5×/w for 3 weeks): 0/10 |
| B1 | effective in treating RS | well tolerated | – | – | animals that died in the treated group ([3]; 5 mg/kg i.v. single dose, n=4, death at day 90 post engraftment): One animal |
| B2 | – | – | 9/10 | 10/10 | Alive animals ([2]; 0.94 mg/kg (MTD 1/16), i.v. single dose): 8/10; Alive animals ([2]; 1.88 mg/kg (MTD 1/8), i.v. single dose): 9/10 |
| B3 | effective in treating RS | well tolerated | 9/10 | 10/10 | residual RS disease activity in organs (flow cytometry CD45/CD19/CD20) ([3]; single dose, 5 mg): significantly reduce; Alive animals ([2]; 1.25 mg/kg (MTD 1/16), i.v. single dose): 4/10; Alive animals ([2]; 2.5 mg/kg (MTD 1/8), i.v. single dose): 6/10 |
